This note sets out measurements from patent US20150023971A1.

Assay [1] concerns the target his-tagged sortilin luminal domain, mutant F174A (human) (UniProt Q99523). Briefly: SPR (Biacore), mutant immobilised on CM5, GST-pro-dom-NGF 10-50 nM, 1:1 fit.
In assay [2] the target is his-tagged sortilin luminal domain, mutant R163A (human) (UniProt Q99523). Described as above.
Assay [3] deals with his-tagged sortilin luminal domain, mutant F165A (human) (UniProt Q99523). The description is as above.
For assay [4], the target named is his-tagged sortilin luminal domain, mutant K172A (human) (UniProt Q99523). Described as above.
Assay [5] deals with his-tagged sortilin luminal domain, mutant R160A (human) (UniProt Q99523). The assay is described as above.
Assay [6] concerns the target his-tagged sortilin luminal domain, mutant F170A (human) (UniProt Q99523). The description is as above.
For assay [7], the target named is his-tagged sortilin luminal domain, mutant R166A (human) (UniProt Q99523). The description is as above.
The target of assay [8] is purified human Sortilin extracellular domain (produced in stably transfected CHO cells) (human) (UniProt Q99523). Kind of assay: SPR (Biacore), 25-500 nM propeptide over immobilised Sortilin extracellular domain.
For assay [9] the target is unchanged. Kind of assay: SPR (Biacore) competition, inhibitor prebound, then coinjected with 200 nM proNGF over immobilised Sortilin.
The target in assay [10] is T1, recombinant his-S-tagged pro-domain of human BDNF (residues Ala1-Arg110), from pET-30 Xa/LIC, E. coli (human) (UniProt P23560).
T1 sequence: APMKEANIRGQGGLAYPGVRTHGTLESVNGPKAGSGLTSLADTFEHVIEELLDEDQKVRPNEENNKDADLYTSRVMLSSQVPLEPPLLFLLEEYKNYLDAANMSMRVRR
Briefly: SPR (Biacore 2000), 390 nM Sortilin over immobilised pro-domain (˜300 fmol/mm2).

purified human Sortilin extracellular domain (produced in stably transfected CHO cells) (human), sequence (Q99523 78-755 V650M limits assumed): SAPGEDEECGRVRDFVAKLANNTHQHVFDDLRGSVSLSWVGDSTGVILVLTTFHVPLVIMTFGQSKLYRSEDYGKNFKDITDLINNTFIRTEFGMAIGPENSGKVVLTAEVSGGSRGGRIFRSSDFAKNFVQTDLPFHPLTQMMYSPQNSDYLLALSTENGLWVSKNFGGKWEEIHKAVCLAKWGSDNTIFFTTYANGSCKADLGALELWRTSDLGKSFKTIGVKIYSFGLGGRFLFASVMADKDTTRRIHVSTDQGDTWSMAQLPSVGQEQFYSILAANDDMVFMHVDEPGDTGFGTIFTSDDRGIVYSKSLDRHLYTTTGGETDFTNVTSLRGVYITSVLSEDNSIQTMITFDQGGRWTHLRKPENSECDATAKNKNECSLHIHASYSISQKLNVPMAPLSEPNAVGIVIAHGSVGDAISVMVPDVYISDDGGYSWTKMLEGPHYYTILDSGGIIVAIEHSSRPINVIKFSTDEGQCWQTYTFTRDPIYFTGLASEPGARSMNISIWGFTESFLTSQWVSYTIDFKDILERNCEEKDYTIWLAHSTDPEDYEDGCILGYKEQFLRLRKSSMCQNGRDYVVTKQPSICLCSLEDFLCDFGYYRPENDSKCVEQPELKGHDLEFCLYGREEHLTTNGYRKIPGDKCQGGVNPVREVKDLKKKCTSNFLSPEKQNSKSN
his-tagged sortilin luminal domain, mutant R160A (human), sequence (Q99523 other isoform, or with tags, fused parts or gaps R160A R160A limits assumed): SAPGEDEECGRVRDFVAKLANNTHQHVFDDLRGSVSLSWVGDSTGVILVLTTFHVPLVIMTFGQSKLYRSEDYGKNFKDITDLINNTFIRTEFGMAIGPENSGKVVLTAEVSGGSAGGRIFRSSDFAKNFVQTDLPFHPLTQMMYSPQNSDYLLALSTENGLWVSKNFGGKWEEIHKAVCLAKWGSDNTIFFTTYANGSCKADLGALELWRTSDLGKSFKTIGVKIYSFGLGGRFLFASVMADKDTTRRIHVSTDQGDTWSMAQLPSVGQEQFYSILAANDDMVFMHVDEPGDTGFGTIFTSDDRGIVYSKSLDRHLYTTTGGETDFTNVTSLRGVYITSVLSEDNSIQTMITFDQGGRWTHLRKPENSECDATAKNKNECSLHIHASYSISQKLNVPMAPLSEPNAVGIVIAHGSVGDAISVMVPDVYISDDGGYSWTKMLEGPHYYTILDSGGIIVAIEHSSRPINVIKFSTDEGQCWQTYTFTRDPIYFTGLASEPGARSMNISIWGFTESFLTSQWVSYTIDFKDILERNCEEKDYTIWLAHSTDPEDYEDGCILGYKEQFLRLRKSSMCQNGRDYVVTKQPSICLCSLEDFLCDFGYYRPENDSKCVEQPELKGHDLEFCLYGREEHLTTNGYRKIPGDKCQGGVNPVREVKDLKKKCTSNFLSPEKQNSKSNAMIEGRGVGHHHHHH
his-tagged sortilin luminal domain, mutant F174A (human), sequence (Q99523 other isoform, or with tags, fused parts or gaps F174A F174A limits assumed): as the sequence (Q99523 other isoform, or with tags, fused parts or gaps R160A R160A limits assumed) above, with A116R, F130A counted along it
his-tagged sortilin luminal domain, mutant R166A (human), sequence (Q99523 other isoform, or with tags, fused parts or gaps R166A R166A limits assumed): as the sequence (Q99523 other isoform, or with tags, fused parts or gaps R160A R160A limits assumed) above, with A116R, R122A counted along it
recombinant human Sortilin ectodomain with C-terminal poly-histidine tag (pCEP-Pu, EBNA293/HEK293 cells), ending at Ser725, sequence (Q99523 other isoform, or with tags, fused parts or gaps limits assumed): as the sequence (Q99523 other isoform, or with tags, fused parts or gaps R160A R160A limits assumed) above, with A116R counted along it
his-tagged sortilin luminal domain, mutant F170A (human), sequence (Q99523 other isoform, or with tags, fused parts or gaps F170A F170A limits assumed): as the sequence (Q99523 other isoform, or with tags, fused parts or gaps R160A R160A limits assumed) above, with A116R, F126A counted along it
his-tagged sortilin luminal domain, mutant K172A (human), sequence (Q99523 other isoform, or with tags, fused parts or gaps K172A K172A limits assumed): as the sequence (Q99523 other isoform, or with tags, fused parts or gaps R160A R160A limits assumed) above, with A116R, K128A counted along it
his-tagged sortilin luminal domain, mutant F165A (human), sequence (Q99523 other isoform, or with tags, fused parts or gaps F165A F165A limits assumed): as the sequence (Q99523 other isoform, or with tags, fused parts or gaps R160A R160A limits assumed) above, with A116R, F121A counted along it
his-tagged sortilin luminal domain, mutant R163A (human), sequence (Q99523 other isoform, or with tags, fused parts or gaps R163A R163A limits assumed): as the sequence (Q99523 other isoform, or with tags, fused parts or gaps R160A R160A limits assumed) above, with A116R, R119A counted along it

“GST-NGF-pro-domain fusion protein (Nykjaer et al., Nature 2004) (from UniProt P01138 19-121)”: the Kd in [1] turned out to be 4.27 nM; in [2], 2.7 nM; in [3], 3.86 nM; in assay [4], 3.91 nM; in assay [5], 1.89 nM; in assay [6], 5.59 nM. In [7], the Kd amounted to 4.38 nM. Also, the kon in [5] came to 147000 M⁻¹ s⁻¹.

For “human NGF-propeptide expressed in E. coli”, the Kd in [8] was found to be 8 nM. For the same substance, in [9], the percent inhibition of proNGF binding to Sortilin worked out at 85%.

“recombinant human Sortilin ectodomain with C-terminal poly-histidine tag (pCEP-Pu, EBNA293/HEK293 cells), ending at Ser725 (from UniProt Q99523 78-755) (receptor)”: the response (RU) in [10] turned out to be 300 RU.
